Assays:
[1] = biological target: T1, human 4-1BB (CD137) on Jurkat-hu4-1BB-NFκB-luc2 reporter cells (human, UniProt Q07011 24-255); test: cell-based or functional assay
[2] = biological target: T1, human 4-1BB (CD137) on …; test: cell-based or functional assay; set-up: AUC of NFκB-luciferase activation curve, no FAP+ cells / AUC of NFκB-luciferase activation curve, with WM-266-4 cells: unit not given beside the values
[3] = biological target: T2, human FAP on NIH/3T3-huFAP clone 19 cells (human, UniProt Q12884 1-760); test: flow cytometry on NIH/3T3-huFAP clone 19 cells
T2 construct: NIH/3T3 cells transfected with a plasmid encoding human FAP
Experimental: (§1) Plates were incubated for 30 minutes at 4° C. and washed once with 200 μL 4° C. cold DPBS buffer. […] Cells were washed twice with 200 μL 4° C. DPBS buffer and then resuspended in 50 μL/well DPBS containing 1% Formaldehyde for fixation. The same or the next day cells were resuspended in 100 μL FACS-buffer and acquired using MACSQuant Analyzer 10 (Miltenyi Biotec).

[4] = biological target: T2, human FAP on NIH/3T3-huFAP clone 19 …; test: flow cytometry on NIH/3T3-huFAP clone 19 cells; remark: listed apart in the source
Experimental: as §1

[5] = biological target: T1, human 4-1BB (CD137) on …; test: flow cytometry on Jurkat-hu4-1BB-NFκB-luc2 cells
Experimental: Plates were incubated for 30 minutes at 4° C. and washed once with 200 μL 4° C. cold DPBS buffer. […] Cells were washed twice with 200 μL 4° C. DPBS buffer and then resuspended in 50 μL/well DPBS containing 1% Formaldehyde for fixation. The same or the next day cells were resuspended in 100 μL FACS-buffer and acquired using MACSQuant Analyzer X (Miltenyi Biotec).

[6] = biological target: T3, hu4-1BB-SNAP Tb-labeled expressed on transfected Hek cells (human, UniProt Q07011 24-255, Tb (terbium) label on the SNAP tag); test: TR-FRET (TagLite) competition against d2-labeled 20H4.9 IgG1 (0.6 nM), after 4 h
T3 construct: SNAP-tag fusion of human 4-1BB; also called Tb hu4-1BB-SNAP

[7] = biological target: T1, human 4-1BB (CD137) on …; test: cell-based or functional assay; remark: listed apart in the source
[8] = biological target: T1, human 4-1BB (CD137) on …; test: cell-based or functional assay; set-up: AUC of NFκB-luciferase activation curve, no CEA+ cells / AUC of NFκB-luciferase activation curve, with CHO-k1-cynoCEACAM5 clone 8: unit not given beside the values
[9] = biological target: T4, cynomolgus monkey CEACAM5 on CHO-k1-cynoCEACAM5 clone 8 cells (cynomolgus monkey); test: flow cytometry on CHO-k1-cynoCEACAM5 clone 8; set-up: unit not given beside the values
T4 construct: whole, on cells

[10] = biological target: T1, human 4-1BB (CD137) on …; test: cell-based or functional assay; remark: listed apart in the source
[11] = biological target: T5, human 4-1BB Fc(kih) (human, UniProt P01857 104-328 = IgG part); test: SPR (Biacore T200), human 4-1BB-Fc(kih) amine-coupled on a CM5 chip, antibody 150 nM as analyte 1
T5 construct: Monomeric Fc-linked antigen: 4-1BB ectodomain, AcTEV site, Fc knob and Avi tag, paired with an Fc hole chain; also called hu4-1BB-Fc(kih); human 4-1BB antigen Fc knob chain with Fc hole chain
T5 sequence (P01857 other isoform, or with tags, fused parts or gaps limits assumed): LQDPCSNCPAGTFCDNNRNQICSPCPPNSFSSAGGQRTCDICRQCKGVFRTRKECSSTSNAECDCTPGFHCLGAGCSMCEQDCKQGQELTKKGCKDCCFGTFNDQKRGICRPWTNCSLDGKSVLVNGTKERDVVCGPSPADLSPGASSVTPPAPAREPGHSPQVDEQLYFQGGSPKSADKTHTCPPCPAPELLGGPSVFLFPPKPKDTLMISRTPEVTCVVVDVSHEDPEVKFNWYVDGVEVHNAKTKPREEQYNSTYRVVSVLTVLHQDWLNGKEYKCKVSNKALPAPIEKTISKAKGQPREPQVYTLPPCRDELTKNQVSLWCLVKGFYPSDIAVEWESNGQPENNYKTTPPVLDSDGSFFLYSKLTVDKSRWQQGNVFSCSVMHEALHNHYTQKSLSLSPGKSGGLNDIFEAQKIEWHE
Experimental: All SPR experiments were performed on a Biacore T200 at 25° C. with HBS-EP as running buffer (0.01 M HEPES pH 7.4, 0.15 M NaCl, 3 mM EDTA, 0.005% Surfactant P20, Biacore, Freiburg/Germany). […] Immobilization level of approx. 900 RU was used.
The dissociation was monitored for 240 sec. Bulk refractive index differences were corrected for by subtracting the response obtained in a reference flow cell, where no protein was immobilized.

B1: 2+1 H2H 4-1BB (20H4.9)/FAP (4B9) P329GLALA IgG1 (bispecific antibody)
heavy 1: QVQLQQWGAGLLKPSETLSLTCAVYGGSFSGYYWSWIRQSPEKGLEWIGEINHGGYVTYNPSLESRVTISVDTSKNQFSLKLSSVTAADTAVYYCARDYGPGNYDWYFDLWGRGTLVTVSSASTKGPSVFPLAPSSKSTSGGTAALGCLVEDYFPEPVTVSWNSGALTSGVHTFPAVLQSSGLYSLSSVVTVPSSSLGTQTYICNVNHKPSNTKVDEKVEPKSCDKTHTCPPCPAPEAAGGPSVFLFPPKPKDTLMISRTPEVTCVVVDVSHEDPEVKFNWYVDGVEVHNAKTKPREEQYNSTYRVVSVLTVLHQDWLNGKEYKCKVSNKALGAPIEKTISKAKGQPREPQVCTLPPSRDELTKNQVSLSCAVKGFYPSDIAVEWESNGQPENNYKTTPPVLDSDGSFFLVSKLTVDKSRWQQGNVFSCSVMHEALHNHYTQKSLSLSP
heavy 2: not shown
light 1: not shown
light 2: EVQLLESGGGLVQPGGSLRLSCAASGFTFSSYAMSWVRQAPGKGLEWVSAIIGSGASTYYADSVKGRFTISRDNSKNTLYLQMNSLRAEDTAVYYCAKGWFGGFNYWGQGTLVTVSSASVAAPSVFIFPPSDEQLKSGTASVVCLLNNFYPREAKVQWKVDNALQSGNSQESVTEQDSKDSTYSLSSTLTLSKADYEKHKVYACEVTHQGLSSPVTKSFNRGEC
notes: Bivalent for 4-1BB, monovalent for FAP (cross-Fab fused head to head); also called 4-1BB (20H.9)×FAP 2+1 H2H; anti-4-1BB (20H4.9)×anti-FAP (4B9) 2+1 H2H huIgG1 P329GLALA
[1]
  EC50 of NFκB-luciferase activation curve, with NIH/3T3-huFAP clone 19 cells: 0.02 nM
  EC50 of NFκB-luciferase activation curve, with WM-266-4 cells: 0.06 nM
[2]
  AUC of NFκB-luciferase activation curve, no FAP+ cells: 715
  AUC of NFκB-luciferase activation curve, with NIH/3T3-huFAP clone 19 cells: 109000
  AUC of NFκB-luciferase activation curve, with WM-266-4 cells: 49400
[3]
  EC50: 1.81 nM
[4]
  AUC: 40200
[5]
  EC50: 0.062 nM
[6]
  IC50: 1.9 nM

B2: 4-1BB (20H4.9)/FAP (4B9) P329GLALA IgG1 2+1 VH/VL (C-terminal) (bispecific antibody)
heavy 1: QVQLQQWGAGLLKPSETLSLTCAVYGGSFSGYYWSWIRQSPEKGLEWIGEINHGGYVTYNPSLESRVTISVDTSKNQFSLKLSSVTAADTAVYYCARDYGPGNYDWYFDLWGRGTLVTVSSASTKGPSVFPLAPSSKSTSGGTAALGCLVKDYFPEPVTVSWNSGALTSGVHTFPAVLQSSGLYSLSSVVTVPSSSLGTQTYICNVNHKPSNTKVDKKVEPKSCDKTHTCPPCPAPEAAGGPSVFLFPPKPKDTLMISRTPEVTCVVVDVSHEDPEVKFNWYVDGVEVHNAKTKPREEQYNSTYRVVSVLTVLHQDWLNGKEYKCKVSNKALGAPIEKTISKAKGQPREPQVCTLPPSRDELTKNQVSLSCAVKGFYPSDIAVEWESNGQPENNYKTTPPVLDSDGSFFLVSKLTVDKSRWQQGNVFSCSVMHEALHNHYTQKSLSLSPGGGGGSGGGGSGGGGSGGGGSEVQLLESGGGLVQPGGSLRLSCAASGFTFSSYAMSWVRQAPGKGLEWVSAIIGSGASTYYADSVKGRFTISRDNSKNTLYLQMNSLRAEDTAVYYCAKGWFGGFNYWGQGTLVTVSS
heavy 2: not shown
light: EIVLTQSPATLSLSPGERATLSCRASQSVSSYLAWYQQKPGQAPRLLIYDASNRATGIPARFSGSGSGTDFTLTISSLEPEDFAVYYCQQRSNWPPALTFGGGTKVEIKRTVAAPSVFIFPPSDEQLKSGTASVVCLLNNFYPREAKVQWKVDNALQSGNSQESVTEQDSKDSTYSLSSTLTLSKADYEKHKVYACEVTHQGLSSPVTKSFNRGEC
notes: Control format: FAP VH and VL fused to the C-termini of the heavy chains; also called 2+1 VH/VL anti-4-1BB (20H4.9)×anti-FAP (4B9) huIgG1 P329GLALA; 2+1 (C-terminal)
[1]
  EC50 of NFκB-luciferase activation curve, with NIH/3T3-huFAP clone 19 cells: 0.008 nM
  EC50 of NFκB-luciferase activation curve, with WM-266-4 cells: 0.028 nM
[2]
  AUC of NFκB-luciferase activation curve, no FAP+ cells: 4360
  AUC of NFκB-luciferase activation curve, with NIH/3T3-huFAP clone 19 cells: 95100
  AUC of NFκB-luciferase activation curve, with WM-266-4 cells: 30900
[3]
  EC50: 3.94 nM
[4]
  AUC: 21200
[6]
  IC50: 2.5 nM

B3: Anti-FAP (4B9) huIgG1 P329GLALA (antibody, V domains shown)
VH: EVQLLESGGGLVQPGGSLRLSCAASGFTFSSYAMSWVRQAPGKGLEWVSAIIGSGASTYYADSVKGRFTISRDNSKNTLYLQMNSLRAEDTAVYYCAKGWFGGFNYWGQGTLVTVSS
VL: EIVLTQSPGTLSLSPGERATLSCRASQSVTSSYLAWYQQKPGQAPRLLINVGSRRATGIPDRFSGSGSGTDFTLTISRLEPEDFAVYYCQQGIMLPPTFGQGTKVEIK
[2]
  AUC of NFκB-luciferase activation curve, no FAP+ cells: 181
  AUC of NFκB-luciferase activation curve, with NIH/3T3-huFAP clone 19 cells: 195
  AUC of NFκB-luciferase activation curve, with WM-266-4 cells: 191

B4: 2+1 H2H 4-1BB (20H4.9)/CEA (MFE23) huIgG1 P329GLALA (bispecific antibody)
heavy 1: B1 heavy 1
heavy 2: not shown
light 1: not shown
light 2: QVKLQQSGAELVRSGTSVKLSCTASGFNIKDSYMHWLRQGPEQGLEWIGWIDPENGDTEYAPKFQGKATFTTDTSSNTAYLQLSSLTSEDTAVYYCNEGTPTGPYYFDYWGQGTTVTVSSASVAAPSVFIFPPSDEQLKSGTASVVCLLNNFYPREAKVQWKVDNALQSGNSQESVTEQDSKDSTYSLSSTLTLSKADYEKHKVYACEVTHQGLSSPVTKSFNRGEC
notes: also called 2+1 H2H anti-4-1BB (20H4.9)×anti-CEA (MFE23) huIgG1 P329GLALA
[7]
  EC50 of NFκB-luciferase activation curve, no CEA+ cells: 0.1 nM
  EC50 of NFκB-luciferase activation curve, with CHO-k1-cynoCEACAM5 clone 8: 0.14 nM
  EC50 of NFκB-luciferase activation curve, with CHO-k1-humanCEACAM5 clone 11: 0.02 nM
  EC50 of NFκB-luciferase activation curve, with CHO-k1-humanCEACAM5 clone 12: 0.02 nM
[8]
  AUC of NFκB-luciferase activation curve, no CEA+ cells: 774
  AUC of NFκB-luciferase activation curve, with CHO-k1-cynoCEACAM5 clone 8: 802
  AUC of NFκB-luciferase activation curve, with CHO-k1-humanCEACAM5 clone 11: 76200
  AUC of NFκB-luciferase activation curve, with CHO-k1-humanCEACAM5 clone 12: 72300
[9]
  AUC: 169

B5: 2+1 H2H 4-1BB (20H4.9)/CEA (A5H1EL1D) huIgG1 P329GLALA (bispecific antibody)
heavy 1: B1 heavy 1
heavy 2: not shown
light 1: not shown
light 2: EVQLLESGGGLVQPGGSLRLSCAASGFTFTDYYMNWVRQAPGKGLEWLGFIGNKANAYTTEYSASVKGRFTISRDKSKNTLYLQMNSLRAEDTATYYCTRDRGLRFYFDYWGQGTTVTVSSASVAAPSVFIFPPSDEQLKSGTASVVCLLNNFYPREAKVQWKVDNALQSGNSQESVTEQDSKDSTYSLSSTLTLSKADYEKHKVYACEVTHQGLSSPVTKSFNRGEC
notes: also called 2+1 H2H anti-4-1BB (20H4.9)×anti-CEA (A5H1EL1D) huIgG1 P329GLALA
[7]
  EC50 of NFκB-luciferase activation curve, no CEA+ cells: 0.09 nM
  EC50 of NFκB-luciferase activation curve, with CHO-k1-cynoCEACAM5 clone 8: 0.1 nM
  EC50 of NFκB-luciferase activation curve, with CHO-k1-humanCEACAM5 clone 11: 0.05 nM
  EC50 of NFκB-luciferase activation curve, with CHO-k1-humanCEACAM5 clone 12: 0.04 nM
[8]
  AUC of NFκB-luciferase activation curve, no CEA+ cells: 1130
  AUC of NFκB-luciferase activation curve, with CHO-k1-cynoCEACAM5 clone 8: 26500
  AUC of NFκB-luciferase activation curve, with CHO-k1-humanCEACAM5 clone 11: 58100
  AUC of NFκB-luciferase activation curve, with CHO-k1-humanCEACAM5 clone 12: 56600
[9]
  AUC: 614

B6: 2+1 H2H 4-1BB (20H4.9)/PD-L1 human IgG1 PGLALA (bispecific antibody)
heavy 1: B1 heavy 1
heavy 2: not shown
light 1: not shown
light 2: not shown
[10]
  EC50 of NFκB-luciferase activation curve, with MKN45-huPD-L1 cells: 0.04 nM

B7: 1+1 4-1BB (20H4.9)/PD-L1 human IgG1 PGLALA (bispecific antibody)
heavy 1: B1 heavy 1
heavy 2: not shown
light 1: not shown
light 2: not shown
notes: Monovalent for 4-1BB and for PD-L1; also called 1+1 anti-4-1BB (20H4.9)×anti-PD-L1 huIgG1 P329GLALA; 1+1 H2H 4-1BB (20H4.9)/PD-L1 human IgG1 PGLALA
[10]
  EC50 of NFκB-luciferase activation curve, with MKN45-huPD-L1 cells: 0.1 nM
[11]
  binding result: binds
